B1: FAB03 (Fab, V domains shown)
VH: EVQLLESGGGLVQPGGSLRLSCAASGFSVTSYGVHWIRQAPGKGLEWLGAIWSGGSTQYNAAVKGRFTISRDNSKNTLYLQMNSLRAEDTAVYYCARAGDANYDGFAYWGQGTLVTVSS
VL: DIQMTQSPSSLSASVGDRVTITCQASSSVSFMYWYQQRPGKAPRLLIYDTSNLASGVPSRFSGSGSGTSYTFTISSLQPEDIATYYCQQWDTYPLTFGQGTKVEIK
notes: F11VH-1 + F11VK-123; Human monovalent Fab
B2: FAB12 (Fab, V domains shown)
VH: EVQLLESGGGLVQPGGSLRLSCAASGFTVTSYAVHWVRQAPGKGLEWLGVIWSGGSTDYNAAFISRLTISKDNSKNTVYFQMNSLRAEDTAVYYCARAGDYNYDGFAYWGQGTLVTVSS
VL: DIQMTQSPSSLSASVGDRVTITCQASSSVSFMYWYQQRPGKAPRLLIYDTSNLASGVPSRFSGSGSGTSYTFTISSLQPEDIATYYCQQWDTYPLTFGQGTKVEIK
notes: F11VH-23 + F11VK-123; Human monovalent Fab
B3: FAB09 (Fab, V domains shown)
VH: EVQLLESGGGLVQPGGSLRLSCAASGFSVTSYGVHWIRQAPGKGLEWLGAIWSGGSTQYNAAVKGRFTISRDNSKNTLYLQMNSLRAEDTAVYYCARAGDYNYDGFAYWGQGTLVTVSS
VL: DIQMTQSPSSLSASVGDRVTITCQASSSVSFMYWYQQRPGKAPRLLIYDTSNLASGVPSRFSGSGSGTSYTFTISSLQPEDIATYYCQQWDTYPLTFGQGTKVEIK
notes: F11VH-13 + F11VK-123; Human monovalent Fab

Legend:
[1] = molecular target: T1, cynomolgus and/or rhesus monkey CD122 His tag (rhesus monkey, UniProt Q38J85 27-240 (cynomolgus entry)); test: BIACORE SPR, Fab on rhesus CD122
T1 construct: also called rhesus CD122; rhCD122
T1 sequence: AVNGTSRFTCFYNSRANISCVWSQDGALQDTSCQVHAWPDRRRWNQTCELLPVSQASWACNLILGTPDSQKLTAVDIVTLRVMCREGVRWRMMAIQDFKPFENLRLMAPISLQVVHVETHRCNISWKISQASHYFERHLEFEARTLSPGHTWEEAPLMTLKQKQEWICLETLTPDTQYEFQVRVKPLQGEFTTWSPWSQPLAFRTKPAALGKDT
Description: (§1) A mouse anti-human antibody (CH1 specific) was immobilized on a CMS Sensor Chip to a level of 2000 RU in acetate buffer at pH 4.5 using amine coupling following the Wizard instructions for two channels. One channel was used for background signal correction. The standard running buffer HBS-EP pH 7.4 was used. Regeneration was performed with a single injection of 10 μl of 10 mM Glycine at pH 1.5 at 20 μl/minute. IgG samples were injected for 2 minutes at 50 nM at 30 μl/min followed by and off-rate of 60 seconds. The monomeric antigen (human CD122 His tagged or cynomolgus and/or rhesus monkey CD122 His tag) was injected in two fold serial dilutions from 100 nM down to 3.1 nM, for 2 minutes at 30 μl/min followed by an off-rate of 300 seconds. The obtained sensorgrams were analyzed using the BIACORE® 3000 evaluation (BIAevaluation) software. The KD was calculated by simultaneous fitting of the association and dissociation phases to a 1:1 Langmuir binding model.

[2] = molecular target: T2, human CD122 His tagged (human, UniProt P14784 27-240); test: BIACORE SPR, Fab on human CD122
T2 construct: also called hCD122
T2 sequence: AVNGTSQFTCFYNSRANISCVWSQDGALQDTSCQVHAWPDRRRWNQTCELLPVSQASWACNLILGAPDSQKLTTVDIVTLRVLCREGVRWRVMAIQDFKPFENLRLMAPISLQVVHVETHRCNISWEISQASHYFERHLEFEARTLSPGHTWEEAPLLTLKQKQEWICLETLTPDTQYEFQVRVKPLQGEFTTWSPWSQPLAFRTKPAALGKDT
Description: as §1

Row | Binder | Kd [1] [nM] | Kd [2] [nM]
1 | B1 | 20.6 | 38.6
2 | B2 | 19.5 | 21.8
3 | B3 | 36.5 | 72.5
